Measurements published in patent publication US20250186614A1, “COMPACT DRUG RESPONSIVE DOMAINS FOR REGULATION OF FUNCTION/ABUNDANCE AND DELIVERY OF POLYPEPTIDE PAYLOADS” (OBSIDIAN THERAPEUTICS, INC., priority 2022, published 2025).
Where two headings read alike, the source gives them in different places.

Test: Example 4: dose response of FKBP constructs 160-255, Ec50, Ec90 and fold change (raw and normalized to mCherry)
Type: cell-based
Details: for FC (fold change): fold change during initial analysis
Description: Additional experiments were performed for constructs FKBP-160-292.

[1] = FKBP constructs 160-255, not normalized, read-out: EC90
[2] = normalized to mCherry, read-out: EC90 (Norm)

Row | Molecule | EC90 [1] [nM] | FC (fold change) | EC90 [2] [nM]
1 | FKBP-234 (protein, Description of sequence: Construct Name: FKBP-234; Mutation(s): Q72R Q84E A117W V85R DRD D90T) HCPIKSRKGDVLHMHYTGKLEDGTEFDSSLPRNQPFVFSLGTGERIKGWTQGLLGMCEGEKRKLVIPSELGYGERGWPPKIPGGATLVFEVELLKIER | 8760 | 23.5 | 12100
2 | FKBP-244: FKBP13 DRD-AcGFP construct of Table 10 (protein, Description of sequence: Construct Name: FKBP-244; Mutation(s): Q72R Q84E A117W V85R DRD P118S M54A) HCPIKSRKGDVLHAHYTGKLEDGTEFDSSLPRNQPFVFSLGTGERIKGWDQGLLGMCEGEKRKLVIPSELGYGERGWSPKIPGGATLVFEVELLKIER | 307 | 51.2 | 328
3 | FKBP-253 (protein, Description of sequence: Construct Name: FKBP-253; Mutation(s): Q72R Q84E A117W V85R DRD I136P) HCPIKSRKGDVLHMHYTGKLEDGTEFDSSLPRNQPFVFSLGTGERIKGWDQGLLGMCEGEKRKLVIPSELGYGERGWPPKIPGGATLVFEVELLKPER |  | 2.3 | 
4 | FKBP-237 (protein, Description of sequence: Construct Name: FKBP-237; Mutation(s): Q72R Q84E A117W V85R DRD G113N) HCPIKSRKGDVLHMHYTGKLEDGTEFDSSLPRNQPFVFSLGTGERIKGWDQGLLGMCEGEKRKLVIPSELGYNERGWPPKIPGGATLVFEVELLKIER | 550 | 24.1 | 484
5 | FKBP-247 (protein, Description of sequence: Construct Name: FKBP-247; Mutation(s): Q72R Q84E A117W V85R DRD S69H M54A) HCPIKSRKGDVLHAHYTGKLEDGTEFDSHLPRNQPFVFSLGTGERIKGWDQGLLGMCEGEKRKLVIPSELGYGERGWPPKIPGGATLVFEVELLKIER | 2810 | 35.0 | 2950
6 | FKBP-248 (protein, Description of sequence: Construct Name: FKBP-248; Mutation(s): Q72R Q84E A117W DRD S68D) HCPIKSRKGDVLHMHYTGKLEDGTEFDDSLPRNQPFVFSLGTGEVIKGWDQGLLGMCEGEKRKLVIPSELGYGERGWPPKIPGGATLVFEVELLKIER | 1800 | 50.1 | 1880
7 | FKBP-246 (protein, Description of sequence: Construct Name: FKBP-246; Mutation(s): Q72R Q84E A117W V85R DRD S69H) HCPIKSRKGDVLHMHYTGKLEDGTEFDSHLPRNQPFVFSLGTGERIKGWDQGLLGMCEGEKRKLVIPSELGYGERGWPPKIPGGATLVFEVELLKIER | 1530 | 30.4 | 1520
8 | FKBP-254 (protein, Description of sequence: Construct Name: FKBP-254; Mutation(s): Q72R Q84E A117W DRD G99R) HCPIKSRKGDVLHMHYTGKLEDGTEFDSSLPRNQPFVFSLGTGEVIKGWDQGLLGMCEREKRKLVIPSELGYGERGWPPKIPGGATLVFEVELLKIER | 369 | 35.6 | 373
9 | FKBP-240: FKBP13 DRD-AcGFP construct of Table 10 (protein, Description of sequence: Construct Name: FKBP-240; Mutation(s): Q72R Q84E A117W V85R DRD E61Y) HCPIKSRKGDVLHMHYTGKLYDGTEFDSSLPRNQPFVFSLGTGERIKGWDQGLLGMCEGEKRKLVIPSELGYGERGWPPKIPGGATLVFEVELLKIER | 111 | 43.7 | 111
10 | FKBP-238 (protein, Description of sequence: Construct Name: FKBP-238; Mutation(s): Q72R Q84E A117W V85R DRD G113N M54A) HCPIKSRKGDVLHAHYTGKLEDGTEFDSSLPRNQPFVFSLGTGERIKGWDQGLLGMCEGEKRKLVIPSELGYNERGWPPKIPGGATLVFEVELLKIER | 846 | 26.8 | 863
11 | FKBP-241 (protein, Description of sequence: Construct Name: FKBP-241; Mutation(s): Q72R Q84E A117W V85R DRD E61Y M54A) HCPIKSRKGDVLHAHYTGKLYDGTEFDSSLPRNQPFVFSLGTGERIKGWDQGLLGMCEGEKRKLVIPSELGYGERGWPPKIPGGATLVFEVELLKIER | 221 | 43.9 | 222
12 | FKBP-165 (protein, Description of sequence: Construct Name: FKBP-165; Mutation(s): Q72R Q84E A117W DRD M54A P119V V85R) HCPIKSRKGDVLHAHYTGKLEDGTEFDSSLPRNQPFVFSLGTGERIKGWDQGLLGMCEGEKRKLVIPSELGYGERGWPVKIPGGATLVFEVELLKIER | 970 | 47.6 | 984
13 | FKBP-243: FKBP13 DRD-AcGFP construct of Table 10 (protein, Description of sequence: Construct Name: FKBP-243; Mutation(s): Q72R Q84E A117W V85R DRD P118S) HCPIKSRKGDVLHMHYTGKLEDGTEFDSSLPRNQPFVFSLGTGERIKGWDQGLLGMCEGEKRKLVIPSELGYGERGWSPKIPGGATLVFEVELLKIER | 125 | 37.1 | 127
14 | FKBP-242 (protein, Description of sequence: Construct Name: FKBP-242; Mutation(s): Q72R Q84E A117W DRD P118S) HCPIKSRKGDVLHMHYTGKLEDGTEFDSSLPRNQPFVFSLGTGEVIKGWDQGLLGMCEGEKRKLVIPSELGYGERGWSPKIPGGATLVFEVELLKIER | 466 | 24.4 | 539
15 | FKBP-235 (protein, Description of sequence: Construct Name: FKBP-235; Mutation(s): Q72R Q84E A117W V85R DRD D90T M54A) HCPIKSRKGDVLHAHYTGKLEDGTEFDSSLPRNQPFVFSLGTGERIKGWTQGLLGMCEGEKRKLVIPSELGYGERGWPPKIPGGATLVFEVELLKIER | 9980 | 23.5 | 11100
16 | FKBP-245 (protein, Description of sequence: Construct Name: FKBP-245; Mutation(s): Q72R Q84E A117W DRD S69H) HCPIKSRKGDVLHMHYTGKLEDGTEFDSHLPRNQPFVFSLGTGEVIKGWDQGLLGMCEGEKRKLVIPSELGYGERGWPPKIPGGATLVFEVELLKIER | 5830 | 40.6 | 5870
17 | FKBP-250 (protein, Description of sequence: Construct Name: FKBP-250; Mutation(s): Q72R Q84E A117W DRD E130F) HCPIKSRKGDVLHMHYTGKLEDGTEFDSSLPRNQPFVFSLGTGEVIKGWDQGLLGMCEGEKRKLVIPSELGYGERGWPPKIPGGATLVFFVELLKIER | 101 | 22.0 | 114
18 | FKBP-249 (protein, Description of sequence: Construct Name: FKBP-249; Mutation(s): Q72R Q84E A117W V85R DRD S68D) HCPIKSRKGDVLHMHYTGKLEDGTEFDDSLPRNQPFVFSLGTGERIKGWDQGLLGMCEGEKRKLVIPSELGYGERGWPPKIPGGATLVFEVELLKIER | 472 | 33.7 | 494
19 | FKBP-252 (protein, Description of sequence: Construct Name: FKBP-252; Mutation(s): Q72R Q84E A117W DRD I136P) HCPIKSRKGDVLHMHYTGKLEDGTEFDSSLPRNQPFVFSLGTGEVIKGWDQGLLGMCEGEKRKLVIPSELGYGERGWPPKIPGGATLVFEVELLKPER |  | 1.3 | 
20 | FKBP-236 (protein, Description of sequence: Construct Name: FKBP-236; Mutation(s): Q72R Q84E A117W DRD G113N) HCPIKSRKGDVLHMHYTGKLEDGTEFDSSLPRNQPFVFSLGTGEVIKGWDQGLLGMCEGEKRKLVIPSELGYNERGWPPKIPGGATLVFEVELLKIER | 1810 | 39.1 | 1960
21 | FKBP-239 (protein, Description of sequence: Construct Name: FKBP-239; Mutation(s): Q72R Q84E A117W DRD E61Y) HCPIKSRKGDVLHMHYTGKLYDGTEFDSSLPRNQPFVFSLGTGEVIKGWDQGLLGMCEGEKRKLVIPSELGYGERGWPPKIPGGATLVFEVELLKIER | 223 | 31.1 | 243
